Values of other authors, collected in PMC12302472.

Molecular target: ATOX1 (Homo sapiens) (UniProt O00244)
Test: SPR

UniProt O00244, sequence (O00244 whole entry): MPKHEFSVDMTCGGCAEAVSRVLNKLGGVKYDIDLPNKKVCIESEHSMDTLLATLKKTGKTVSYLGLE

For MEMO1 (from UniProt Q9Y316), the Kd is listed as 210 nM.
